Each sequence was assayed against SHP2-C SH2 (assay: SH2 binding enrichment of the phosphorylated peptide, bacterial display (enrichment ratio); higher = better substrate or ligand; peptides without Tyr show the background).
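Also: peptide library displayed on the E. coli surface as eCPX fusions, selected cells deep-sequenced, score is each peptide's frequency after selection divided by its frequency in the input.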

Sequence	SH2 binding enrichment
GYKVRYATWSI [FGFR1_Y210]	2.01
SGPRRYTMAAL [TTR_Y125_I127M]	0.505
DERQPYAHMNG [IGF1R_Y1346]	0.767
VATSWYRSPEL [CDKL5_Y177_R175S]	0.77
DEWFLYKMRDI [CPS1_Y879_K875E]	0.829
AFHGEYIPTVF [RAC2_Y32_P29H]	0.59
REENGYNTYAS [FGF10_Y161_I156R]	1.11
WFISFYPQVIM [CTNS_Y143_S139F]	0.618
AFQGKYTPSGQ [ALDOA_Y343_C339Y_YF]	0.803
AKKVFYVNETR [SHH_Y253_I255N]	0.814
ESTPLYPMLFG [SCLY_Y280_F276S]	0.891
EFISEHCGEII [EZH2_Y641_Y641H]	0.784
KELAPYDENRF [RPS19_Y48_W52R]	1.39
LALTVYADCLA [ABCA4_Y2063_G2059A]	0.508
ETKENYGKTLK [CHL1_Y291]	0.562
RHPLDYLRQFP [NARS2_Y138_E137D_YF]	0.746
LASSEYPVRRR [GALK1_Y236]	0.426

Sequence	SH2 binding enrichment
QEIATYRPLLE [KRT14_Y415_R417P]	0.64
QGLRLYRPHLA [BTK_Y617]	1.04
HNLDYYKMTTN [FGFR3_Y648_K650M]	1
SVTCTYSAALN [TP53_Y126_P128A]	0.654
PEVRRCVLPLN [RPE65_Y368_Y368C]	0.633
LARHMYDKEYY [MET_Y1230_D1228H]	1.43
RLFARYFQGDL [PDK3_Y337_YF]	0.454
DRPASYLDKVR [KRT17_Y98_L95P]	0.664
VRRRSYSAGNA [KANK1_Y324_K321R]	0.557
ALAAPYVLFPS [CEFIP_Y1332_G1337S_YF]	0.816
GCCSWYRGWAP [TIMP3_Y195_Y191C]	1.14
DEEYEYMNRRR [ERBB3_Y1199]	0.701
EVTQDYGLDPK [FH_Y110_N107T]	0.648
VVQGIYGYHHH [UFSP2_Y285_Y290H]	1.23
PVRIAYDRPRG [SUGP2_Y985]	0.764
LNNIIYRVERA [CUX2_Y1470]	1.62

The sequences below were run against c-Src SH2 in the same assay as above.

Sequence	SH2 binding enrichment
GYKVRYATWSI [FGFR1_Y210]	1.28
SGPRRYTMAAL [TTR_Y125_I127M]	0.487
DERQPYAHMNG [IGF1R_Y1346]	1.85
VATSWYRSPEL [CDKL5_Y177_R175S]	0.549
DEWFLYKMRDI [CPS1_Y879_K875E]	0.417
AFHGEYIPTVF [RAC2_Y32_P29H]	0.682
REENGYNTYAS [FGF10_Y161_I156R]	0.509
WFISFYPQVIM [CTNS_Y143_S139F]	0.444
AFQGKYTPSGQ [ALDOA_Y343_C339Y_YF]	0.592
AKKVFYVNETR [SHH_Y253_I255N]	0.743
ESTPLYPMLFG [SCLY_Y280_F276S]	0.554
EFISEHCGEII [EZH2_Y641_Y641H]	0.633
KELAPYDENRF [RPS19_Y48_W52R]	0.605
LALTVYADCLA [ABCA4_Y2063_G2059A]	0.572
ETKENYGKTLK [CHL1_Y291]	0.664
RHPLDYLRQFP [NARS2_Y138_E137D_YF]	0.519
LASSEYPVRRR [GALK1_Y236]	0.336

Sequence	SH2 binding enrichment
QEIATYRPLLE [KRT14_Y415_R417P]	0.422
QGLRLYRPHLA [BTK_Y617]	0.988
HNLDYYKMTTN [FGFR3_Y648_K650M]	0.757
SVTCTYSAALN [TP53_Y126_P128A]	0.395
PEVRRCVLPLN [RPE65_Y368_Y368C]	0.548
LARHMYDKEYY [MET_Y1230_D1228H]	1.15
RLFARYFQGDL [PDK3_Y337_YF]	0.292
DRPASYLDKVR [KRT17_Y98_L95P]	0.502
VRRRSYSAGNA [KANK1_Y324_K321R]	0.488
ALAAPYVLFPS [CEFIP_Y1332_G1337S_YF]	4.34
GCCSWYRGWAP [TIMP3_Y195_Y191C]	1.24
DEEYEYMNRRR [ERBB3_Y1199]	0.619
EVTQDYGLDPK [FH_Y110_N107T]	0.461
VVQGIYGYHHH [UFSP2_Y285_Y290H]	0.652
PVRIAYDRPRG [SUGP2_Y985]	0.623
LNNIIYRVERA [CUX2_Y1470]	0.558

Reference: the supplement of paper PMC10065799, “High-throughput profiling of sequence recognition by tyrosine kinases and SH2 domains using bacterial peptide display” (eLife, 2023)
